Source: patent US20170081672

Columns and labels:
[1] = tested on: ALS2_T1 TALE-nuclease left subunit; assay: cell_activity; settings: yeast beta-galactosidase reporter, 37 C, as pair with right subunit; SD or SE 0.02; 0.86 (0.02) at 30 C; NHEJ in N. benthamiana protoplasts 70.68% (DNA, no UTR)
[2] = tested on: ALS2_T1 TALE-nuclease right subunit; assay: cell_activity; settings: yeast beta-galactosidase reporter, 37 C, as pair with left subunit; SD or SE 0.02; 0.86 (0.02) at 30 C; NHEJ in N. benthamiana protoplasts 70.68% (DNA, no …)

## TAGCTTGTTCCACATTT (double strand) [ALS2_T1 left target half-site]
[1]
  activity (relative to I-SceI (max 1.0)): 0.97

## TGTCATGCTGGGTCAG (double strand) [ALS2_T1 right target half-site]
[2]
  activity (relative to I-SceI (max 1.0)): 0.97
